{
  "source": "paper PMC4734655",
  "biological_target": "recombinant human IL-8 (interleukin-8) (human)",
  "experiment": "SPR; Biacore; IL-8 immobilised on a CM5 chip by amine coupling (Fc2), BSA on the reference cell (Fc1); soluble recombinant Mtb proteins as analytes at 2.5, 5, 10 and 20 uM; 22 °C, PBS pH 7.4 with 0.005% P20; flow 5 ul/min; one-to-one model",
  "data": [
    {"binder": "recombinant M. tuberculosis rAtsG (His-tagged, from pHis-atsG) (enzyme) MTSERATGQRENLLIVHWHDLGRYLGVYHHPDVYSPRLDRLAAEGILFTRAHATAPLCTPSRGSLFTGRYPQSNGLVGLAHHGWEYRTGVQTLPQLLSESGWYSALFGMQHETSYPKRLGFDEFDVSNSYCEYVVAKAQDWLHNRVPALDGQRFLLTAGFFETHRPYPHERYRPADSAAVELPDYLPDTPEVRQDVAEFYGSIATADEAVGRLLDTLADTGLDASTWVVFVTDHGPAFPRAKSTLYDAGTGIALIIRPPTRRAMAPRVYDELFSGVDLVPTLLDLLRLEVPADVEGVSHAPALLAPDTENAAVRDHVYTAKTYHDSFDPIRAIRTKEYSYIENYAPRPLLDLPWDIQESPAGMAVAPLVKAPRPQRELYDLRADPTETNNLLAGDDSTQGVAAIAADLAVRLHDWRQRTADVIPSDFAGSRIAERYTETYLRIHRKTPTGRSAIAADRGIDEHCS", "values": [
      {"measurement": "Kd", "value": 6.83, "unit": "µM"}
    ]},
    {"binder": "recombinant M. tuberculosis rGlmU (His-tagged, from pHis-glmU) (enzyme) MTFPGDTAVLVLAAGPGTRMRSDTPKVLHTLAGRSMLSHVLHAIAKLAPQRLIVVLGHDHQRIAPLVGELADTLGRTIDVALQDRPLGTGHAVLCGLSALPDDYAGNVVVTSGDTPLLDADTLADLIATHRAVSAAVTVLTTTLDDPFGYGRILRTQDHEVMAIVEQTDATPSQREIREVNAGVYAFDIAALRSALSRLSSNNAQQELYLTDVIAILRSDGQTVHASHVDDSALVAGVNNRVQLAELASELNRRVVAAHQLAGVTVVDPATTWIDVDVTIGRDTVIHPGTQLLGRTQIGGRCVVGPDTTLTDVAVGDGASVVRTHGSSSSIGDGAAVGPFTYLRPGTALGADGKLGAFVEVKNSTIGTGTKVPHLTYVGDADIGEYSNIGASSVFVNYDGTSKRRTTVGSHVRTGSDTMFVAPVTIGDGAYTGAGTVVREDVPPGALAVSAGPQRNIENWVQRKRPGSPAAQASKRASEMACQQPTQPPDADQTP", "values": [
      {"measurement": "Kd", "value": 5.24, "unit": "µM"}
    ]}
  ]
}
